According to patent US20230265179A1 (TWIST BIOSCIENCE, published 2023):
Changes are numbered by the printed parent chain.

T1: IL1RL1 over-expressed on Expi293 cells (UniProt Q01638 19-556, limits assumed)
T1 construct: whole, on cells; Target of the flow cytometry MFI ratio (over-expressing cells over parent cells); also called cytokine over-expressing Expi293 cells
T1 sequence (looked up): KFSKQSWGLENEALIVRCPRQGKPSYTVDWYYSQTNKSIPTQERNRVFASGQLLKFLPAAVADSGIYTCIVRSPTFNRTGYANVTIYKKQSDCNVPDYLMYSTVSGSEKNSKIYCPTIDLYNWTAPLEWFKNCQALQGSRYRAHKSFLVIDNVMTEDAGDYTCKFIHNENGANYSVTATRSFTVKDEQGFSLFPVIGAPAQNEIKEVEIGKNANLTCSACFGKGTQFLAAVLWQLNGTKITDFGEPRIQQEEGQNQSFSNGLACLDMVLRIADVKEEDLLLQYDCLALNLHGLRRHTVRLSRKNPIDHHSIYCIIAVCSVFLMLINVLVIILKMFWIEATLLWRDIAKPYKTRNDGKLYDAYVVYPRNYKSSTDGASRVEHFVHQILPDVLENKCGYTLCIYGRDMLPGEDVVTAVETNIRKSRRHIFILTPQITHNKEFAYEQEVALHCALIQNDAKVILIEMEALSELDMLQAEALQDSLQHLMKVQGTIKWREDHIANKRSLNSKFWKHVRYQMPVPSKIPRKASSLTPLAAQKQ

B1: IL1RL1-192 (antibody, V domains shown)
VH: EVQLLESGGGLVQPGGSLRLSCAASGFTFGNYAMAWVRQAPGKGLEWVSGITRSGSTNYRDSVKGRFTISRDNSKNTLYLQMNSLRAEDTAVYYCARDRYFRQQNAFDYWGQGTLVTVSS
VL: DIQMTQSPSSLSASVGDRVTITCQASQSISSYLAWYQQKPGKAPKLLIYGRNKRPSGVPSRFSGSGSGTDFTLTISSLQPEDFATYYCAQTGTHPTTFGQGTKVEIK
notes: IgG2
B2: IL1RL1-230 (antibody, V domains shown)
VH: EVQLLESGGGLVQPGGSLRLSCAASGFTFSGYIMAWVRQAPGKGLEWVSSISSTGFKTYYADSVKGRFTISRDNSKNTLYLQMNSLRAEDTAVYYCAKGNSRYVFDYWGQGTLVTVSS
VL: DIQMTQSPSSLSASVGDRVTITCKASDHIGKFLTWYQQKPGKAPKLLIYGRNKRPSGVPSRFSGSGSGTDFTLTISSLQPEDFATYYCNSRDTSGLHYVFGQGTKVEIK
notes: IgG2
B3: IL1RL1-28 (Fc fusion, not shown: a dimerising Fc or GST)
VHH: EVQLVESGGGLVQPGGSLRLSCAASGRTISRYTMGWFRQAPGKEREFVAGIWSGGYTHYADSVKGRFTISADNSKNTAYLQMNSLKPEDTAVYYCAAVSSNTEIFDWGQGTLVTVSS
notes: VHH-Fc on IgG2 Fc
B4: IL1RL1-35 (Fc fusion, not shown: a dimerising Fc or GST)
VHH: B3 VHH with R27L, R31S, Y32L
notes: VHH-Fc on IgG2 Fc
B5: IL1RL1-214 (antibody, V domains shown)
VH: EVQLLESGGGLVQPGGSLRLSCAASGFTFNAYPMTWVRQAPGKGLEWVSAISGRGDNTYYADSVKGRFTISRDNSKNTLYLQMNSLRAEDTAVYYCARPPKRGPRFDYWGQGTLVTVSS
VL: DIQMTQSPSSLSASVGDRVTITCKASENVDTYVSWYQQKPGKAPKLLIYGRNKRPSGVPSRFSGSGSGTDFTLTISSLQPEDFATYYCQQGHTLPWTFGQGTKVEIK
notes: IgG2
B6: IL1RL1-36 (Fc fusion, not shown: a dimerising Fc or GST)
VHH: EVQLVESGGGLVQPGGSLRLSCAASGSIYSLVAMGWFRQAPGKEREWMGVIAYDGSTYYADSVKGRFTISADNSKNTAYLQMNSLKPEDTAVYYCAAVGGATTVTASEWDWGQGTLVTVSS
notes: VHH-Fc on IgG2 Fc
B7: IL1RL1-256 (antibody, V domains shown)
VH: EVQLLESGGGLVQPGGSLRLSCAASGFTFDRYRMTWVRQAPGKGLEWVSSIGANGAPTYYADSVKGRFTISRDNSKNTLYLQMNSLRAEDTAVYYCARGRLFDYWGQGTLVTVSS
VL: DIQMTQSPSSLSASVGDRVTITCQGASLRNYYASWYQQKPGKAPKLLIYGNNNRPSGVPSRFSGSGSGTDFTLTISSLQPEDFATYYCASRSSKGNPHVLFGQGTKVEIK
notes: IgG2
B8: IL1RL1-257 (antibody, V domains shown)
VH: B7 VH with D30S, R31P, Y32R, T35S, S50A, G52T, A53G, N54S, A56G, P57S
VL: DIQMTQSPSSLSASVGDRVTITCRASQSISGYLNWYQQKPGKAPKLLIYGNNNRPSGVPSRFSGSGSGTDFTLTISSLQPEDFATYYCSQNTHVPYTFGQGTKVEIK
notes: IgG2
B9: IL1RL1-245 (antibody, V domains shown)
VH: EVQLLESGGGLVQPGGSLRLSCAASGFTLSSYAMSWVRQAPGKGLEWVSGITRSGSTNYRDSVKGRFTISRDNSKNTLYLQMNSLRAEDTAVYYCAKFPFTHGKFDYWGQGTLVTVSS
VL: DIQMTQSPSSLSASVGDRVTITCRASQGVRTSLAWYQQKPGKAPKLLIYRASTLASGVPSRFSGSGSGTDFTLTISSLQPEDFATYYCASRSSKGNPHVLFGQGTKVEIK
notes: IgG2
B10: IL1RL1-31 (Fc fusion, not shown: a dimerising Fc or GST)
VHH: EVQLVESGGGLVQPGGSLRLSCAASGFTFRNFGMGWFRQAPGKEREFVALINVGGVAKYADSVKGRFTISADNSKNTAYLQMNSLKPEDTAVYYCTTDARHWGQGTLVTVSS
notes: VHH-Fc on IgG2 Fc
B11: IL1RL1-32 (Fc fusion, not shown: a dimerising Fc or GST)
VHH: EVQLVESGGGLVQPGGSLRLSCAASGFTLGDYVMGWFRQAPGKEREFVAVIYTSDGSTYYADSVKGRFTISADNSKNTAYLQMNSLKPEDTAVYYCVVSFSTRGPYWGQGTLVTVSS
notes: VHH-Fc on IgG2 Fc
B12: IL1RL1-239 (antibody, V domains shown)
VH: EVQLLESGGGLVQPGGSLRLSCAASGFTFRRYVMGWVRQAPGKGLEWVSSISGSSGTTYYADSVKGRFTISRDNSKNTLYLQMNSLRAEDTAVYYCAKAYYGGFDYWGQGTLVTVSS
VL: DIQMTQSPSSLSASVGDRVTITCSASSSVSSSYLHWYQQKPGKAPKLLIYRKSNRPSGVPSRFSGSGSGTDFTLTISSLQPEDFATYYCQQSYSTPTFGQGTKVEIK
notes: IgG2
B13: IL1RL1-30 (Fc fusion, not shown: a dimerising Fc or GST)
VHH: EVQLVESGGGLVQPGGSLRLSCAASGDISSIVAMGWFRQAPGKEREWVASISTSGSTITPYADSVKGRFTISADNSKNTAYLQMNSLKPEDTAVYYCAAGAVRYGVSTSPMNYNWGQGTLVTVSS
notes: VHH-Fc on IgG2 Fc
B14: IL1RL1-33 (Fc fusion, not shown: a dimerising Fc or GST)
VHH: EVQLVESGGGLVQPGGSLRLSCAASGGTFSTHWMGWFRQAPGKEREEVAAISWIIGSTYYADSVKGRFTISADNSKNTAYLQMNSLKPEDTAVYYCATSGSGSPNWGQGTLVTVSS
B15: IL1RL1-29 (Fc fusion, not shown: a dimerising Fc or GST)
VHH: EVQLVESGGGLVQPGGSLRLSCAASGGFSVYAMGWFRQAPGKEREWVSSTSTGGGGTYYADSVKGRFTISADNSKNTAYLQMNSLKPEDTAVYYCAANVGVTGSYEWGQGTLVTVSS
notes: VHH-Fc on IgG2 Fc
B16: IL1RL1-79 (Fc fusion, not shown: a dimerising Fc or GST)
VHH: EVQLVESGGGLVQPGGSLRLSCAASGRTFSMGWFRQAPGKEREAVASISWSGGSAFYADSVKGRFTISADNSKNTAYLQMNSLKPEDTAVYYCAAIGGGAVWGQGTLVTVSS
notes: VHH-Fc on IgG2 Fc
B17: IL1RL1-252 (antibody, V domains shown)
VH: EVQLLESGGGLVQPGGSLRLSCAASGFTFSRYHIEWVRQAPGKGLEWVSAISGRGDNTYYADSVKGRFTISRDNSKNTLYLQMNSLRAEDTAVYYCARHKGLQPLDYWGQGTLVTVSS
VL: DIQMTQSPSSLSASVGDRVTITCRASQDVSSGVAWYQQKPGKAPKLLIYPKHNRPPGVPSRFSGSGSGTDFTLTISSLQPEDFATYYCSARSVRGNPHVLFGQGTKVEIK
notes: IgG2
B18: IL1RL1-200 (antibody, V domains shown)
VH: EVQLLESGGGLVQPGGSLRLSCAASGFTFKSYGMHWVRQAPGKGLEWVSLIPHTGNPTYYADSVKGRFTISRDNSKNTLYLQMNSLRAEDTAVYYCARGGPRGNKYYFDYWGQGTLVTVSS
VL: DIQMTQSPSSLSASVGDRVTITCSGDKLGHTYTSWYQQKPGKAPKLLIYRKSNRPSGVPSRFSGSGSGTDFTLTISSLQPEDFATYYCYSRDRSGNHLGMFGQGTKVEIK
notes: IgG2
B19: IL1RL1-85 (Fc fusion, not shown: a dimerising Fc or GST)
VHH: EVQLVESGGGLVQPGGSLRLSCAASGRTFSTAGMGWFRQAPGKEREWVASIITSGSTITPYADSVKGRFTISADNSKNTAYLQMNSLKPEDTAVYYCAVVDLLRGKLWGQGTLVTVSS
notes: VHH-Fc on IgG2 Fc
B20: IL1RL1-189 (antibody, V domains shown)
VH: EVQLLESGGGLVQPGGSLRLSCAASGFTFSSYFMSWVRQAPGKGLEWVSAISREGRATYYADSVKGRFTISRDNSKNTLYLQMNSLRAEDTAVYYCARIRVGPSGGAFDYWGQGTLVTVSS
VL: DIQMTQSPSSLSASVGDRVTITCKASDHIGKFLTWYQQKPGKAPKLLIYGRNKRPSGVPSRFSGSGSGTDFTLTISSLQPEDFATYYCQQSYSTPTFGQGTKVEIK
notes: IgG2
B21: IL1RL1-38 (Fc fusion, not shown: a dimerising Fc or GST)
VHH: EVQLVESGGGLVQPGGSLRLSCAASGFTFSNHIMGWFRQAPGKERELVAVIIDSRTTKYADSVKGRFTISADNSKNTAYLQMNSLKPEDTAVYYCAAVGGATTVTASEWDWGQGTLVTVSS
notes: VHH-Fc on IgG2 Fc
B22: IL1RL1-55 (Fc fusion, not shown: a dimerising Fc or GST)
VHH: EVQLVESGGGLVQPGGSLRLSCAASGEIASIIAMGWFRQAPGKERELVAVIIGGGSTNYADSVKGRFTISADNSKNTAYLQMNSLKPEDTAVYYCAAVGGATTVTASEWDWGQGTLVTVSS
notes: VHH-Fc on IgG2 Fc
B23: IL1RL1-80 (Fc fusion, not shown: a dimerising Fc or GST)
VHH: B21 VHH with F27R, N31P, H32I, I33A, L47M
notes: VHH-Fc on IgG2 Fc
B24: IL1RL1-76 (Fc fusion, not shown: a dimerising Fc or GST)
VHH: EVQLVESGGGLVQPGGSLRLSCAASGSIFTIYAMGWFRQAPGKEREWVASISTSGSTITPYADSVKGRFTISADNSKNTAYLQMNSLKPEDTAVYYCATTEYSGYDAVNYWGQGTLVTVSS
notes: VHH-Fc on IgG2 Fc
B25: IL1RL1-221 (antibody, V domains shown)
VH: EVQLLESGGGLVQPGGSLRLSCAASGFTFPKYDMMWVRQAPGKGLEWVSSIRGSSSSTYYADSVKGRFTISRDNSKNTLYLQMNSLRAEDTAVYYCARAGRILFDYWGQGTLVTVSS
VL: DIQMTQSPSSLSASVGDRVTITCRASQTIERRLNWYQQKPGKAPKLLIYGRNKRPSGVPSRFSGSGSGTDFTLTISSLQPEDFATYYCGQSYRYPLTFGQGTKVEIK
notes: IgG2
B26: IL1RL1-193 (antibody, V domains shown)
VH: EVQLLESGGGLVQPGGSLRLSCAASGFTFAKYKMWWVRQAPGKGLEWVSGITRSGSTNYRDSVKGRFTISRDNSKNTLYLQMNSLRAEDTAVYYCASLSRGYWGQGTLVTVSS
VL: DIQMTQSPSSLSASVGDRVTITCKASDHIGKFLTWYQQKPGKAPKLLIYHTSRLQSGVPSRFSGSGSGTDFTLTISSLQPEDFATYYCQQGFSNPWTFGQGTKVEIK
notes: IgG2

biological target: T1, IL1RL1 over-expressed on Expi293 cells; assay: flow cytometry, 100 nM antibody, over-expressing Expi293 / parent cells
Procedure: All incubations and washes were in buffer containing PBS+1% BSA. MFI Ratio is defined by the mean fluorescence intensity (MFI) of the cytokine over-expressing Expi293 cell over the Expi293 parent cell. […] EC50 was calculated in GraphPad Prism.

Binder	100 nM FACS (MFI Ratio) [MFI ratio]
B1	0.55
B2	1.43
B3	473
B4	514
B5	1.34
B6	87.7
B7	0.6
B8	1.38
B9	1.28
B10	311
B11	432
B12	1.93
B13	515
B14	504
B15	431
B16	1
B17	0.58
B18	1
B19	4.47
B20	7.46
B21	1.37
B22	1.6
B23	1.49
B24	385
B25	0.51
B26	1.62
